We go through two molecules from publication PMC4973743, “Functional analysis of structurally related soybean GmWRKY58 and GmWRKY76 in plant growth and development”.

Residue numbers refer to the chain shown, from its start.

One data set addresses T1, GmWRKY76 (Glycine max (soybean), UniProt I1KB70 1-319).
T1 sequence: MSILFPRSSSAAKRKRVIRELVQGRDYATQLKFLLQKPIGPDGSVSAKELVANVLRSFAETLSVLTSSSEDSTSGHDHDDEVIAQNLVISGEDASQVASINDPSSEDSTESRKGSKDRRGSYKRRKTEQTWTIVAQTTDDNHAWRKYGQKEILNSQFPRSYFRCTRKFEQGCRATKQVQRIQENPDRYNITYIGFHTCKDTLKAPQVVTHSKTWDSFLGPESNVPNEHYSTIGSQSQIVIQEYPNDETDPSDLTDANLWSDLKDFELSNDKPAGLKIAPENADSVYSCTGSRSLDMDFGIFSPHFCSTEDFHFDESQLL
The data set is described as follows: EMSA; 5 ug poly(dI-dC), 1 ug protein; LightShift Chemiluminescent EMSA kit; 20 ul reactions, 2 ng labeled oligo, 5 ug poly(dI-dC), 1 ug recombinant protein; buffer, salt, pH and temperature not stated. As to conditions: tags: His (pET32a fusion), label: biotin 3' end. In general terms: In EMSA bound probe runs differently from free probe, usually more slowly.

The target of the next data set is T2, GmWRKY58 (Glycine max (soybean), UniProt B0LUS3 1-317).
T2 sequence: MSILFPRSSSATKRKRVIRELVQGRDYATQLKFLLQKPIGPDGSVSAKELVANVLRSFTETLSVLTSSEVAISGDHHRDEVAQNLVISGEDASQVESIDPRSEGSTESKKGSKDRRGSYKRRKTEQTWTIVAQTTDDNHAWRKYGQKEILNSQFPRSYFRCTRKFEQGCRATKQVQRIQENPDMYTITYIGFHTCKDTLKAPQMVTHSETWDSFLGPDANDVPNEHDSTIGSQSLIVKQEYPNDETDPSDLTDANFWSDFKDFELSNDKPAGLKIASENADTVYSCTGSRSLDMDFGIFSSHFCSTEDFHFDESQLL
The description is as above. Particulars: tags: His (pET32a fusion), label: biotin 3' end.

B1: Pchn5 (dsDNA)
DNA 1: GGAACTTGACCATCCGTTGACCGGGCTGCAGGAATTCG
DNA 2: CGAATTCCTGCAGCCCGGTCAACGGATGGTCAAGTTCC
For the molecule B1, the binding result with GmWRKY76 and with GmWRKY58 was “binds” each time.

B2: mPchn5 (dsDNA)
DNA 1: B1 DNA 1 with C10A, C21A
DNA 2: B1 DNA 2 with G18T, G29T
B2: the binding result with GmWRKY76 and with GmWRKY58 was “no binding” each time.
